# In patent US20150203577A1 (Chugai, published 2015):
# Changes are numbered by the printed parent chain.
# T1: mouse FcγRII extracellular domain with C-terminal His tag (mouse, UniProt P08101 30-210)
# T1 construct: Made on the basis of NCBI NP-034317.1; also called mFcγRII; mFcgRII
# T1 sequence: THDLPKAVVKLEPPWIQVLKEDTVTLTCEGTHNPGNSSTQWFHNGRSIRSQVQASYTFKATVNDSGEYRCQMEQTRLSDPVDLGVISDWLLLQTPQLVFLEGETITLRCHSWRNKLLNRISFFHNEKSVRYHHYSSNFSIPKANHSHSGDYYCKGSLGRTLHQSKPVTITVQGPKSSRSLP
# T2: mouse FcγRIII extracellular domain with C-terminal His tag (mouse, UniProt P08508 31-215)
# T2 construct: Made on the basis of NCBI NP-034318.2; also called mFcγRIII; mFcgRIII
# T2 chain: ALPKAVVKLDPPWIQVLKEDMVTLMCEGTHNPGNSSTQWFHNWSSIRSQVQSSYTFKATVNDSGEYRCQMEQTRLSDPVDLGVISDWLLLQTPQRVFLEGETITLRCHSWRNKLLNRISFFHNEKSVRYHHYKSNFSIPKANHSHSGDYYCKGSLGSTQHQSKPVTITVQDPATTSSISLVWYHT
# T3: mouse FcγRIII (mouse, UniProt P08508 31-215)
# T3 construct: also called mFcγRIII; mFcgRIII
# T3 chain: T2 chain
# B1: H237-MB431/MRAL-k0 (antibody, mouse IgG1, kappa)
# heavy: QVQLQESGPGLVKPSETLSLTCAVSGHSISHDHAWSWVRQPPGEGLEWIGFISYSGITNYNPSLQGRVTISRDNSKNTLYLQMNSLRAEDTAVYYCARSLARTTAMDYWGEGTLVTVSSAKTTPPSVYPLAPGSAAQTNSMVTLGCLVKGYFPEPVTVTWNSGSLSSGVHTFPAVLQSDLYTLSSSVTVPSSTWPSETVTCNVAHPASSTKVDKKIVPRDCGCKPCICPPNEVEDVFIFPPKPKDVLTITLTPKVTCVVVDISKDDPEVQFSWFVDDVEVHTAQTQPREEQFNSTFRSVSELPIMHQDWLNGKEFKCRVNSAAFPAPIEKTISKTKGRPKAPQVYTIPPPKEQMAKDKVSLTCMITDFFPEDITVEWQWNGQPAENYKNTQPIMDTDGSYFVYSKLNVQKSNWEAGNTFTCSVLHEGLHNHHTEKSLSHSPGK
# light: not shown
# notes: copies: 2 + 2
# B2: H237-MB433/MRAL-k0 (antibody, mouse IgG1, kappa)
# heavy: B1 heavy with P229T
# light: not shown
# notes: copies: 2 + 2
# B3: H237-MB427/MRAL-k0 (antibody, mouse IgG1, kappa)
# heavy: B1 heavy with P229Q, N231A
# light: not shown
# notes: copies: 2 + 2
# B4: H237-MB417/MRAL-k0 (antibody, mouse IgG1, kappa)
# heavy: B1 heavy with P229Q, P230D, N231Y
# light: not shown
# notes: copies: 2 + 2
# B5: H237-MB435/MRAL-k0 (antibody, mouse IgG1, kappa)
# heavy: B1 heavy with P229I, P230T, N231Y
# light: not shown
# notes: copies: 2 + 2
# B6: H237-MB420/MRAL-k0 (antibody, mouse IgG1, kappa)
# heavy: B1 heavy with P229I, P230N, N231Y
# light: not shown
# notes: copies: 2 + 2
# B7: H237-MB429/MRAL-k0 (antibody, mouse IgG1, kappa)
# heavy: B1 heavy with P229D
# light: not shown
# notes: copies: 2 + 2
# B8: H237-MB426/MRAL-k0 (antibody)
# heavy: B1 heavy with N231A
# light: not shown
# notes: copies: 2 + 2
# B9: H237-MB424/MRAL-k0 (antibody, mouse IgG1, kappa)
# heavy: B1 heavy with P229D, N231A
# light: not shown
# notes: copies: 2 + 2
# B10: H237-MB422/MRAL-k0 (antibody, mouse IgG1, kappa)
# heavy: B1 heavy with P229Q, P230N, N231Y
# light: not shown
# notes: copies: 2 + 2
# B11: H237-MB430/MRAL-k0 (antibody, mouse IgG1, kappa)
# heavy: B1 heavy with P229I
# light: not shown
# notes: copies: 2 + 2
# B12: H237-MB436/MRAL-k0 (antibody, mouse IgG1, kappa)
# heavy: B1 heavy with P230T, N231Y
# light: not shown
# notes: copies: 2 + 2
# B13: H237-MB434/MRAL-k0 (antibody, mouse IgG1, kappa)
# heavy: B1 heavy with P229D, P230T, N231Y
# light: not shown
# notes: copies: 2 + 2
# B14: H237-MB416/MRAL-k0 (antibody, mouse IgG1, kappa)
# heavy: B1 heavy with P230D, N231Y
# light: not shown
# notes: copies: 2 + 2
# B15: H237-MB438/MRAL-k0 (antibody, mouse IgG1, kappa)
# heavy: B1 heavy with P229T, P230T, N231Y
# light: not shown
# notes: copies: 2 + 2
# B16: H237-MB437/MRAL-k0 (antibody, mouse IgG1, kappa)
# heavy: B1 heavy with P229Q, P230T, N231Y
# light: not shown
# notes: copies: 2 + 2
# B17: H237-MB421/MRAL-k0 (antibody, mouse IgG1, kappa)
# heavy: B1 heavy with P230N, N231Y
# light: not shown
# notes: copies: 2 + 2
# B18: H237-MB423/MRAL-k0 (antibody, mouse IgG1, kappa)
# heavy: B1 heavy with P229T, P230N, N231Y
# light: not shown
# notes: copies: 2 + 2
# B19: H237-MB418/MRAL-k0 (antibody, mouse IgG1, kappa)
# heavy: B1 heavy with P229T, P230D, N231Y
# light: not shown
# notes: copies: 2 + 2
# B20: H237-MB419/MRAL-k0 (antibody, mouse IgG1, kappa)
# heavy: B1 heavy with P229D, P230N, N231Y
# light: not shown
# notes: copies: 2 + 2
# B21: H237-MB428/MRAL-k0 (antibody, mouse IgG1, kappa)
# heavy: B1 heavy with P229T, N231A
# light: not shown
# notes: copies: 2 + 2
# B22: H237-MB636/MRAL-k0 (antibody, mouse IgG1, kappa)
# heavy: B1 heavy with P229E, P230V, N231Y, D235N
# light: not shown
# notes: mouse IgG1 CH variant; copies: 2 + 2
# B23: H237-MB657/MRAL-k0 (antibody, mouse IgG1, kappa)
# heavy: B1 heavy with P229E, D235F
# light: not shown
# notes: as for B22
# B24: H237-MB642/MRAL-k0 (antibody, mouse IgG1, kappa)
# heavy: B1 heavy with P229E, P230D, N231Y, D235Y
# light: not shown
# notes: as for B22
# Biological target: T1, mouse FcγRII extracellular domain with …
# Assay: SPR Biacore T200
Binder,relative mFcγRII-binding activity (mIgG1 = 1),Kd [nM]
B1,113,–
B2,303,0.694
B3,217,0.966
B4,190,–
B5,146,–
B6,124,–
B7,137,–
B8,112,–
B9,104,–
B10,144,–
B11,207,1.02
B12,151,–
B13,257,0.818
B14,189,–
B15,283,0.742
B16,198,–
B17,178,–
B18,143,–
B19,262,0.802
B20,216,0.974
B21,215,0.977

# Biological target: T2, mouse FcγRIII extracellular domain with …
# Assay: SPR Biacore T200
Binder,relative mFcγRIII-binding activity (mIgG1 = 1),Kd [nM]
B1,4.2,–
B2,11.6,24.4
B3,7,40.3
B4,10.7,–
B5,8.7,–
B6,7.1,–
B7,6.8,–
B8,4.4,–
B9,5.1,–
B10,8.9,–
B11,6.3,45
B12,8.4,–
B13,15.5,18.3
B14,6.3,–
B15,15.7,17.9
B16,11.5,–
B17,9,–
B18,9.2,–
B19,20,14.1
B20,11.6,24.3
B21,8.8,32

# Biological target: T1, mouse FcγRII extracellular domain with …
# Assay: SPR Biacore T200; KD mFcγRIII / KD mFcγRII
Binder,relative I/A (mFcγRII selectivity) (mIgG1 = 1),I/A (mFcγRII selectivity)
B1,26.8,–
B2,26.2,35.2
B3,31.1,41.7
B4,17.8,–
B5,16.8,–
B6,17.5,–
B7,20.3,–
B8,25.2,–
B9,20.4,–
B10,16.3,–
B11,33,44.3
B12,18,–
B13,16.7,22.3
B14,30.2,–
B15,18,24.1
B16,17.3,–
B17,19.9,–
B18,15.5,–
B19,13.1,17.6
B20,18.6,25
B21,24.4,32.7

# Biological target: T3, mouse FcγRIII
# Assay: SPR (Biacore), antibody captured on Protein L, mFcγR as analyte
# Method: Each altered antibody was analyzed for its interaction with each Fcγ receptor prepared above using Biacore T100 (GE Healthcare Japan Corp.), Biacore T200 (GE Healthcare Japan Corp.), Biacore A100, or Biacore 4000. The running buffer used was HBS-EP+ (GE Healthcare Japan Corp.). The assay temperature was set to 25° C. The sensor chips used were chips prepared by immobilizing Protein L (ACTIGEN or BioVision) onto Series S Sensor Chip CM5 (GE Healthcare Japan Corp.) or Series S Sensor Chip CM4 (GE Healthcare Japan Corp.) by the amine coupling method.
# In order to calculate the KD value of each altered antibody for FcγR, kinetic analysis was conducted according to the following method: first, the antibody of interest was captured onto any of these chips and allowed to interact with mFcγR diluted with a running buffer. For the obtained sensorgram, the assay results were globally fit into the 1:1 Langmuir binding model using Biacore Evaluation Software to calculate an association rate constant ka (L/mol/s) and a dissociation rate constant kd (1/s). From these values, the dissociation constant KD (mol/L) was calculated.
row,Binder,relative mFcγRIII-binding activity (mIgG1 = 1) [fold]
1,B22,0.17
2,B23,0.09
3,B24,0.1
